Drawing on article PMC2212291, this text covers binding plus extraction efficiency for three substances.

This assay addresses mouse class I molecule H-2 D^b (mouse | mouse (endogenous in MC57)).

synthetic LCMV peptide GP276-286: the binding plus extraction efficiency was 38%.

Consider synthetic LCMV peptide GP33-41, for which the binding plus extraction efficiency was 17%.

Take synthetic LCMV peptide NP396-404: the binding plus extraction efficiency is 50%.
